# Assay results as given in the Immune Epitope Database (IEDB).
# What was measured:
# HLA-A*02:01 [1] = test: IEDB peptide-MHC binding, purified MHC/competitive/fluorescence; ≥ and ≤ were set here for values at or beyond the usual limits of such assays
# HLA-A*24:02 [2] = test: as above
# HLA-B*44:02 = test: IEDB peptide-MHC binding, purified MHC/competitive/radioactivity; filed as Kd, often an IC50 or EC50 that approximates it; ≥ and ≤ were set here for values at or beyond the usual limits of such assays
# HLA-B*44:03 = test: as above
# HLA-A*30:01 = test: as above
# HLA-A*26:01 [3] = test: as above
# HLA-A*03:01 = test: IEDB peptide-MHC binding, purified MHC/direct/fluorescence; filed as Kd, often an IC50 or EC50 that approximates it; ≥ and ≤ were set here for values at or beyond the usual limits of such assays
# HLA-A*11:01 = test: as above; settings: source organism: SARS-CoV1
# HLA-A*31:01 = test: as above
# HLA-B*27:05 = test: as above; settings: source organism: SARS-CoV1
# HLA-A*23:01 = test: IEDB peptide-MHC binding, purified MHC/competitive/radioactivity; filed as Kd, often an IC50 or EC50 that approximates it; ≥ and ≤ were set here for values at or beyond the usual limits of such assays
# HLA-A*02:01 [4] = test: as above; settings: source organism: Hepatitis B virus
# HLA-A*01:01 = test: as above
# HLA-A*24:02 [5] = test: as above
# HLA-B*40:01 = test: as above
# HLA-B*51:01 = test: as above; settings: source organism: Dengue virus 1 Singapore/S275/1990
# HLA-A*26:01 [6] = test: IEDB peptide-MHC binding, purified MHC/direct/fluorescence; filed as Kd, often an IC50 or EC50 that approximates it; ≥ and ≤ were set here for values at or beyond the usual limits of such assays; settings: source organism: Vibrio vulnificus CMCP6
# HLA-A*30:02 = test: IEDB peptide-MHC binding, purified MHC/competitive/radioactivity; filed as Kd, often an IC50 or EC50 that approximates it; ≥ and ≤ were set here for values at or beyond the usual limits of such assays; settings: source organism: Dengue virus 4 Philippines/H241/1956
# HLA-B*15:01 = test: IEDB peptide-MHC binding, purified MHC/direct/fluorescence; filed as Kd, often an IC50 or EC50 that approximates it; ≥ and ≤ were set here for values at or beyond the usual limits of such assays; settings: source organism: Haemophilus influenzae
# [7] = source organism: Sudan ebolavirus
# [8] = source organism: Dengue virus 2 Jamaica/1409/1983
# [9] = source organism: Dengue virus 4 Philippines/H241/1956
# [10] = source organism: Vaccinia virus WR
# [11] = source organism: Dengue virus 3 Singapore/8120/1995
# [12] = source organism: Zaire ebolavirus
# [13] = source organism: Dengue virus 3 Martinique/1243/1999
# [14] = source organism: Dengue virus 1 Brazil/97-11/1997
# [15] = source organism: Haemophilus influenzae
sequence,measurement,setting,value
TVTGILGSL,IC50,HLA-A*02:01 [1]; [7],22500 nM
same,IC50,HLA-A*24:02 [2]; [7],≥ 76800 nM
TEMGRLPTFM,Kd,HLA-B*44:02; [8],11.6 nM
same,Kd,HLA-B*44:03; [8],167 nM
LCRTSCLQK,Kd,HLA-A*30:01; [9],1350 nM
SVKCQSPPS,Kd,HLA-A*30:01; [10],16.8 nM
SVGGVFTSV,IC50,HLA-A*02:01 [1]; source organism: West Nile virus NY-99,247 nM
GLNLEGSGV,IC50,HLA-A*02:01 [1]; [7],3860 nM
ALLEDPVGT,IC50,HLA-A*02:01 [1]; source organism: Human alphaherpesvirus 1 strain 17,28 nM
ELMMATIGIA,Kd,HLA-A*26:01 [3]; [8],65 nM
TTRDKLFNK,Kd,HLA-A*30:01; [10],123 nM
LTKLFSYGT,IC50,HLA-A*02:01 [1]; source organism: Variola virus,36100 nM
KEEHSSTWHY,Kd,HLA-B*44:02; [11],42.2 nM
same,Kd,HLA-B*44:03; [11],205 nM
TSFFLWVII,IC50,HLA-A*02:01 [1]; [12],≥ 503000 nM
same,IC50,HLA-A*24:02 [2]; [12],≥ 131000 nM
CLPAAPDGI,IC50,HLA-A*02:01 [1]; [12],3840 nM
same,IC50,HLA-A*24:02 [2]; [12],37400 nM
CTILAAVSVS,Kd,HLA-A*26:01 [3]; [8],≥ 55900 nM
same,Kd,HLA-A*30:01; [8],2830 nM
RHYSASFKK,Kd,HLA-A*03:01; source organism: SARS-CoV1,341 nM
same,Kd,HLA-A*11:01,705 nM
same,Kd,HLA-A*31:01; source organism: SARS-CoV1,1250 nM
same,Kd,HLA-B*27:05,282 nM
NVWEVEDYGF,Kd,HLA-A*23:01; [13],175 nM
MDSRPQKIW,IC50,HLA-A*02:01 [1]; [12],≥ 191000 nM
same,IC50,HLA-A*24:02 [2]; [12],67800 nM
PLEEELPR,Kd,HLA-A*02:01 [4],≥ 25000 nM
DRERLKVFL,IC50,HLA-A*24:02 [2]; source organism: Variola virus,≥ 169000 nM
HLHQQLSNT,IC50,HLA-A*02:01 [1]; [7],15000 nM
RYVHKVSGT,IC50,HLA-A*02:01 [1]; [12],≥ 90900 nM
same,IC50,HLA-A*24:02 [2]; [12],6660 nM
AERTGEPDY,Kd,HLA-B*44:02; [9],391 nM
same,Kd,HLA-B*44:03; [9],851 nM
KAKTTISNY,Kd,HLA-A*30:01; [10],24.3 nM
KRSLRPQPTE,Kd,HLA-A*30:01; [8],3690 nM
ETWALRHPGF,Kd,HLA-A*01:01; [14],≥ 41200 nM
same,Kd,HLA-A*26:01 [3]; [14],666 nM
same,Kd,HLA-A*30:01; [14],1900 nM
AYTIGTTHF,Kd,HLA-A*23:01; [8],126 nM
same,Kd,HLA-A*24:02 [5]; [8],774 nM
STANVSLAA,Kd,HLA-A*01:01; [13],2030 nM
YIGEVLVSV,IC50,HLA-A*02:01 [1]; source organism: Homo sapiens,10 nM
KAISNARLK,Kd,HLA-A*30:01; [10],26 nM
VYRIKQQGI,Kd,HLA-A*24:02 [5]; [13],464 nM
REDLWCGSL,Kd,HLA-B*40:01; [9],2.35 nM
LFQKAFSMP,IC50,HLA-A*24:02 [2]; [7],2780 nM
SGVLWDTPSP,Kd,HLA-A*30:01; [14],≥ 70400 nM
AVPSHWVPTS,Kd,HLA-A*30:01; [8],15000 nM
IVRDSMWYI,Kd,HLA-A*30:01; source organism: Vaccinia virus Copenhagen,19.7 nM
KETACLGKSY,Kd,HLA-B*44:03; [8],23.6 nM
HEMYWVSCG,Kd,HLA-B*44:02; [14],37.4 nM
MFLIAENKI,Kd,HLA-A*23:01; source organism: Dengue virus 1 Singapore/S275/1990,913 nM
same,Kd,HLA-B*51:01,2760 nM
YENLKYTVII,Kd,HLA-B*40:01; [13],2.82 nM
ISRSRRLFA,Kd,HLA-A*30:01; [10],2.23 nM
DKFRKSSFF,IC50,HLA-A*24:02 [2]; [7],52200 nM
EGINELGAM,Kd,HLA-A*26:01 [6],48 nM
NWLNNNTQF,Kd,HLA-A*23:01; [8],716 nM
same,Kd,HLA-A*24:02 [5]; [8],88 nM
EKTKTDFGFY,Kd,HLA-A*26:01 [3]; [9],9240 nM
same,Kd,HLA-A*30:02,20.1 nM
ILKEHVSRY,Kd,HLA-A*03:01; [15],3180 nM
same,Kd,HLA-A*31:01; [15],5580 nM
same,Kd,HLA-B*15:01,531 nM
YPNVCIFGN,IC50,HLA-A*24:02 [2]; source organism: Vaccinia virus,35500 nM
SYLAGAGLLF,Kd,HLA-A*23:01; [8],0.709 nM
same,Kd,HLA-A*24:02 [5]; [8],6.22 nM
YWPVMNHKN,IC50,HLA-A*24:02 [2]; [12],7120 nM
